Experimental data as given in the nanobody polyreactivity screen of Harvey et al. (2022).

Experiment: yeast display, Sf9 membrane polyspecificity reagent, FACS + sequencing; frameworks hold sequencing errors
Summary of the method: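 Using colony PCR, genes from sorted yeast display clones were amplified, then sequenced on MiSeq at 2 × 250 and filtered by CDR length. The clones had been stained with 10% biotinylated, detergent-solubilized Sf9 membrane reagent for 1 hour at 4 °C and sorted by FACS into low and high (top ~1%) gates on anti-HA and streptavidin fluorescence. Polyreactivity labels come from the gate of origin.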

Row | Sequence | polyreactivity (PSR sort gate)
1 | QVQLVESGGGLVQAGGSLRLSCAASGRIFTQYAMGWYRPPPGKERELVAAINASDGSTYADSVKGRFTISRDNAKNTVYLQMKSLKPEDTAVYYCNVTGGPYDFTRWSEFDHWGQGTQVTVSS | low polyreactivity
2 | QVQLVESGGGLDQAGGSLRLSCAASASTFRRYAMGWYRQAPGKERELVAAISRSGGNTYYADSVKGRFTISRDNAKNTVYLQMNSLKPEDTAVYYCAASKLYGSPEHGYWGQGTQVTVSS | high polyreactivity
3 | QVQLQESGGGLVQAGGSLRLTCAASGTIFRFRYMGWPRQAPGKERELVAGINGGTTTYYADSVIGRFTISRDNAKNTVYLQRNSLKPDDTAVYNCAAGASRLTYYDYWGQGTQVTVSS | low polyreactivity
4 | QVQLVESGGGLVQAGGSLRLSFAASGRMFTGYAMGWYRQAHGKERELVADITSDGGTYYADSVKGRFTISRDNAKNSVYLQMNSLKPEDTAVYYCAAPRVVFGSSGEDDHWGQGTQVTVSS | low polyreactivity
5 | QVQLVESGGGLVQAGGSLRLSCAASGGIFGRNAMGWYRQAPGKERELVASISKSGGSTYYADSVKGRFTISRDNAKNTVYLQMKSLKPEDSAVYYCAARYSYFNWDNYYWGQGTLVTVSS | high polyreactivity
6 | QVQLVESGGGLVQAGGSLRLSCAASGYTFALYAMGWYRQAPGKERELVAAITDSDGSTYADSVKGRFTISRDNAKNTVYLQMNSLKPEDNAVYYCAGRDPHLQGSSYLSYLTMDYWGQGTQVTVSS | low polyreactivity
7 | QVQLVESGGGLVQAGGSLRLSCAASGRTFARYAIGWSRQAPGKERELVAAITRRGGSTYYADSVKGRFTLSRDNAKNTVYLQMNSLKPEDTAVYYCAAHYPNFGIGAYEYWGQGTQVTVSS | high polyreactivity
8 | QVQLVESGGGLDQAGGSLRLSCAASGITFTVNARGWYREAPGKERELVAGITWSGGSTYYADSVKGRFTISRDNAKNTVYLQMNSLKPEDTAVYYCNADSDGFWSIYDYWGQGTQVTVSS | low polyreactivity
9 | QVQLVESGGGLVQAGGSLRLSCAASGYSFSPNAMGWYRQEPGKDRELVAAISSGVSTDYADSVKGRFSISRDNAKNTVYLQMNSLKPEDTAVYYCAADDQYRVTLGYVYWGQGTQVTVSS | low polyreactivity
10 | QVKLVESAGGLVQAGGSLRLSCAASGSIFNPYDMGWYRQAPGKERELVAAIDWSGGSTYYADSVKGRFTISRDNAKNTVYLQMNSLKPEDTAVYYCNAESYQDTLFGADNDYDYWGQGTQVTVSS | low polyreactivity
11 | QVQLVESGGGLVQAGGSLRLSCAASGFTLHSYAMGWYRQAPWKERELVAAITRSGGGTYYADSVKGRFTISRDNAKNTVYLQMNSLKPEDTAVYYCAARFGGQYQHDYWGQGTQVTVSS | high polyreactivity
12 | QVQLVESGGGLVQAGGSLRLSCAAYGITFVPNAMGWYRQAPGKERELVAAITSGDSTNYADSVKGRFTISRDNAKNTVYLQMNSLKPDDTAVYYCAADSWAQRPNQGRVSLHYYWGQCTQVTVSS | low polyreactivity
13 | QVQLVESGGGLVQAGGSLRLSCAASGSIFKFYAMGWNRQAPGKERAFVAAITYRGGSTYYADSVKGRFTISRDNAKNTVYLQMNRLKPEDTAVYYCNAVVLRWRGYLVPFNYWGQGTQVTVSS | high polyreactivity
14 | QVQLVESGGGLVQAGGSLRLSCAASGFIFYYYAMGWYRQAPGKERELVAGIDKTGGSTYYADSVKGRFTISRDNAKNTVYFQMNSLKPEDTAVYYCAAGYFFPRLRFRNYAYVYWGQGTQVTVSS | high polyreactivity
15 | QVQLVESGGGLVQAGGSLRLSCAASGSNMGDNGMGWYRKAPGKERELVAAITNGGSTTYADSVKGRFTISRDNAKNTVYLQMNSLKPEDTAVYYCAADQQDRDQYSDWTEYDYWGQGTQVTVSS | low polyreactivity
16 | QVQRVESGGGLVQAGASLRLSCAASGRTFRSYTMGWYRQAPGKERELVATISGSGSTNYADSVKGRFTISRDNAKITVYLQMNSLKPEDTAVYYCAADVSLSVFKLDYWGQGTQVTVSS | low polyreactivity
17 | QVQLVDSGGALVQAGGSLRISCAASGYIFSYKAMGWYRQAPGKERELVAAITSGGSTNYADSVKGRFTISRDNAKNTVYLQMKSLKPEDTAVYYCAAERGDTAYRKYDYWGQGTQVTVSS | low polyreactivity
